In US20130123350, “NUCLEIC ACID MOLECULE CAPABLE OF BINDING TO c-MET AND USE THEREOF” (KANAGAWA PREFECTURAL HOSPITAL ORGANIZATION, published 2013):

B1: g12 (ssRNA)
RNA: GGGACGCUCACGUACGCUAACGCGGCCAUCCGGCGUUUGGAACGGGAUGUACACCUGACAUCAGUGCCUGGACGUGCAGU
B2: g19 (ssRNA)
RNA: GGGACGCUCACGUACGCUAAGUAGCCGUGAUUGGGUUGGCUGCCCACAAUUAUCCAGGACUCAGUGCCUGGACGUGCAGU
B3: g33 (ssRNA)
RNA: GGGACGCUCACGUACGCUAAACUUUUGGCGAUCUCCGGCCGGAUACGGGAGAACGAGGUAUCAGUGCCUGGACGUGCAGU
B4: g33 2'-F (ssRNA)
RNA: B3 RNA
modifications: 2'-F on all C and U
B5: g37 (ssRNA)
RNA: GGGACGCUCACGUACGCUAAGGUUUGCUCCGACCGACUAAAGGGAGCCUCUGUCACGAGUUCAGUGCCUGGACGUGCAGU
B6: g37 2'-F (ssRNA)
RNA: B5 RNA
modifications: 2'-F on all C and U
B7: g28 (ssRNA)
RNA: GGGACGCUCACGUACGCUAACCUGGGGGUUCCGCAGGAAUCGGGAACUAGAUUGGUGGUCUCAGUGCCUGGACGUGCAGU
B8: g21 (ssRNA)
RNA: GGGACGCUCACGUACGCUAACCUUGGUGUCAUCCGACCAAAUUAGAACGGGAUGAGGAAGUCAGUGCCUGGACGUGCAGU
B9: g22 (ssRNA)
RNA: GGGACGCUCACGUACGCUAAGCGUGUUUCUUCAUUUCGACGCUGGCCAACGGAAAUGCAAUCAGUGCCUGGACGUGCAGU
B10: g29 (ssRNA)
RNA: GGGACGCUCACGUACGCUAAACGAGCCGUGAUUGGGUUGGCAACCCUGCUUAUGUGAGGAUCAGUGCCUGGACGUGCAGU
B11: g11 (ssRNA)
RNA: GGGACGCUCACGUACGCUAAGUUUAGGUGGCAUCGACCUUCAUGAAACGGGUGCACAGGCUCAGUGCCUGGACGUGCAGU
B12: g20 (ssRNA)
RNA: GGGACGCUCACGUACGCUAAACGUUGUGGCGAACUUCGGCCCGAACGGGAGUAACUGCAUCAGUGCCUGGACGUGCAGU
B13: g36 (ssRNA)
RNA: GGGACGCUCACGUACGCUAACUUGAUUGGUCGCAACCGGACAAGGACGGGUUGAUGCAGUUCAGUGCCUGGACGUGCAGU
B14: g36 2'-F (ssRNA)
RNA: B13 RNA
modifications: 2'-F on all C and U
B15: g30 (ssRNA)
RNA: GGGACGCUCACGUACGCUAAAAAUUGCCGGGAUCUGGUGUGGCGACCAUGCGGCGUGCAUUCAGUGCCUGGACGUGCAGU
B16: g16 (ssRNA)
RNA: GGGACGCUCACGUACGCUAACCGCUACCGGGUGCAACGGGUAGACUGUAACCAGGUGAUAUCAGUGCCUGGACGUGCAGU
B17: g15 (ssRNA)
RNA: GGGACGCUCACGUACGCUAAGACGCGGGCCACCGGCUAGCGACGGGUGGUAAAGGGCUUGUCAGUGCCUGGACGUGCAGU
B18: g31 (ssRNA)
RNA: GGGACGCUCACGUACGCUAAAGAGUCUAUGCCGUGAGUGAGGGUGGCGCCUCGACUGCCAUCAGUGCCUGGACGUGCAGU
B19: g24 (ssRNA)
RNA: GGGACGCUCACGUACGCUAAGAGUUGUCGCACAGCGACUCGAAAAUAAUCUGUCCGACACUCAGUGCCUGGACGUGCAGU
B20: g17 (ssRNA)
RNA: GGGACGCUCACGUACGCUAAAGUGAUGGCCGGCUGGAGAAACGGGCCACUCGAUCCAGGUCAGUGCCUGGACGUGCAGU
B21: g10 (ssRNA)
RNA: GGGACGCUCACGUACGCUAAACACAGCUCUGAUGGUCGUGAUUAGGUUGACCACCUACCUUCAGUGCCUGGACGUGCAGU
B22: g38 (ssRNA)
RNA: GGGACGCUCACGUACGCUAACCAGGAGCAUUAGACCGGGGAAAGAAGGAGUACCGUCUGGUCAGUGCCUGGACGUGCAGU
B23: g23 (ssRNA)
RNA: GGGACGCUCACGUACGCUAAAUGGGAGUGCGCCUCGGCUCUAACGGAGGUAUGCACGUCAUCAGUGCCUGGACGUGCAGU
B24: g14 (ssRNA)
RNA: GGGACGCUCACGUACGCUAAUCAUCGGGACAUCGGAUGGAACGGGUGUCAAGAAGCGUGUUCAGUGCCUGGACGUGCAGU
B25: g13 (ssRNA)
RNA: GGGACGCUCACGUACGCUAAUCACUCGGACAGCCGGAGCGAAACGGGCUGUGUAAGACUGUCAGUGCCUGGACGUGCAGU
B26: g27 (ssRNA)
RNA: GGGACGCUCACGUACGCUAACCUAUGCAGACCGACAUCCGGGUAUACGGGAUGAUGCGACUCAGUGCCUGGACGUGCAGU
B27: g35 (ssRNA)
RNA: GGGACGCUCACGUACGCUAAGAUUUGUGUGAUACCCGACACUCUAACGGGGUAGCAGGGCUCAGUGCCUGGACGUGCAGU
B28: g35 2'-F (ssRNA)
RNA: B27 RNA
modifications: 2'-F on all C and U
B29: g34 (ssRNA)
RNA: GGGACGCUCACGUACGCUAAUUUGGUGAAUUCCGACCAUUUUGCAAACGGGAUACGGGACUCAGUGCCUGGACGUGCAGU
B30: g34 2'-F (ssRNA)
RNA: B29 RNA
modifications: 2'-F on all C and U
B31: g25 (ssRNA)
RNA: GGGACGCUCACGUACGCUAAUAGCAACAGUUCCCAGAGGUGAUCAGGCAGCCUUAAGACAUCAGUGCCUGGACGUGCAGU
B32: g18 (ssRNA)
RNA: GGGACGCUCACGUACGCUAAGGCACCCUAUAGGAUUCAGCCCCUAACCCGGUGUUGUGAAUCAGUGCCUGGACGUGCAGU
B33: g32 (ssRNA)
RNA: GGGACGCUCACGUACGCUAAACAAGACCGGGAUGGGGGUUGGUCACACACAAAGACUGAAUCAGUGCCUGGACGUGCAGU
B34: g26 (ssRNA)
RNA: GGGACGCUCACGUACGCUAAGCUCCACCAGGUGUAGCUAGCCUGUAGACAUCAGUAGCAUCAGUGCCUGGACGUGCAGU

What was measured:
[1] = biological target: T1, rec-cMet (Recombinant Human HGF R/c-MET/Fc Chimera) (Homo sapiens, UniProt P08581;P08581 SEQ:1-283,SEQ:1-625); test: SPR; rec-cMet 100 nM; settings: tags: C-terminal HIEGRMD linker, human IgG Fc (100-330), 6xHis; R&D Systems; chain copies: 2 (inferred, Fc chimera)
T1 sequence (P08581 25-307, stated change not applied, chain 1 of 2): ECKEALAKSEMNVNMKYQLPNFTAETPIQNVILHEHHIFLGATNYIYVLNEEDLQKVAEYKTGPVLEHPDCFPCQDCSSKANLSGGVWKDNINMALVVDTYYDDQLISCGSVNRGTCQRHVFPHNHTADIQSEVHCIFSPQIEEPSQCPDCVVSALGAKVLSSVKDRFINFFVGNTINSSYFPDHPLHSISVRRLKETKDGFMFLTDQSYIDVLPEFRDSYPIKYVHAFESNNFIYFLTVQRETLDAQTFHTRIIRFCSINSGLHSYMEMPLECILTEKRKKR
T1 sequence (P08581 308-932, stated change not applied, chain 2 of 2): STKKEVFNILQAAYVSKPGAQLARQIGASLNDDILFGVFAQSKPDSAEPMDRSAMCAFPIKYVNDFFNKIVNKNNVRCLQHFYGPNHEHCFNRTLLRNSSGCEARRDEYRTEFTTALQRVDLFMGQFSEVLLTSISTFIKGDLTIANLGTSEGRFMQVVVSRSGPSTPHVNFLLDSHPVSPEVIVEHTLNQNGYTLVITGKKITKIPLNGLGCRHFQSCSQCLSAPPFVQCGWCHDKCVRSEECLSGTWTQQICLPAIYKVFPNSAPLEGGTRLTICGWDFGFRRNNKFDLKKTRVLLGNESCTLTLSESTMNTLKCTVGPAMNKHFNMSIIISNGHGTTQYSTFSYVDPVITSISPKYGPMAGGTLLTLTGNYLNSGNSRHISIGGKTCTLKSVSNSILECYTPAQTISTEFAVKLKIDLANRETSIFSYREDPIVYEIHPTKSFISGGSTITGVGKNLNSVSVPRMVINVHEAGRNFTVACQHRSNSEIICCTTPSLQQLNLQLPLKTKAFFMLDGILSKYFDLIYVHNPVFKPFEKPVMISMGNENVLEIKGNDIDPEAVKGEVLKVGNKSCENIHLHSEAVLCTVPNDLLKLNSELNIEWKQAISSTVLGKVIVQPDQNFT
Protocol: (§1) Using these truncated RNA aptamers, the binding ability thereof to the rec-cMet was examined. The binding ability was analyzed using BIACORE (registered trademark) X (GE Healthcare) in accordance with its instructions for use, with the concentration of the rec-cMet being set to 175 nmol/L. Also, the binding ability of each of the RNA aptamers g1 and g1-trA was examined in the same manner. As a comparative example, the 40N was used, and the binding ability thereof was examined in the same manner.
(§2) The binding ability of each of the RNA aptamers to the rec-cMet was examined in the same manner as in Example 5, except that the above RNA aptamers were used. The concentration of the rec-cMet was set to 100 nmol/L. With the time point at which the introduction of the rec-cMet to the chip was started being 0 seconds, introduction of a buffer was started 60 seconds later.

[2] = biological target: T1, rec-cMet (Recombinant Human HGF …); test: SPR; rec-cMet 60 nM; settings: tags: C-terminal HIEGRMD linker, human IgG Fc (100-330), 6xHis; R&D Systems; chain copies: 2 (inferred, Fc chimera)
Protocol: as §1
as §2, with “fluorinated” for “above”, “60” for “100”, “later. As a comparative example, the same negative control as in Example 6 was used.” for “later.”

Row | Binder | binding result [1] | binding result [2]
1 | B1 | binds | 
2 | B2 | binds | 
3 | B3 | binds | 
4 | B4 |  | binds
5 | B5 | binds | 
6 | B6 |  | binds
7 | B7 | binds | 
8 | B8 | binds | 
9 | B9 | binds | 
10 | B10 | binds | 
11 | B11 | binds | 
12 | B12 | binds | 
13 | B13 | binds | 
14 | B14 |  | binds
15 | B15 | binds | 
16 | B16 | binds | 
17 | B17 | binds | 

Row | Binder | binding result [1] | binding result [2]
18 | B18 | binds | 
19 | B19 | binds | 
20 | B20 | binds | 
21 | B21 | binds | 
22 | B22 | binds | 
23 | B23 | binds | 
24 | B24 | binds | 
25 | B25 | binds | 
26 | B26 | binds | 
27 | B27 | binds | 
28 | B28 |  | binds
29 | B29 | binds | 
30 | B30 |  | binds
31 | B31 | binds | 
32 | B32 | binds | 
33 | B33 | binds | 
34 | B34 | binds | 
